{
  "source": "the DeepSol protein solubility set",
  "data": [
    {"assay": "soluble on expression in E. coli; label from the status in PepcDB or PDB records", "values": [
      {"sequence": "MEFYNSTNEIPEEMLKGIDLTYPQLTYLPETGILYDNTYNEKTVPIISGGGSGHEPAHVGYVGSGMLAAAVTGPLFIPPKSKNILKAIRQVNSGKGVFVIIKNFEADLKEFNEAIKEARTEGIDVRYIVSHDDISVNAYNFHKRHRGVAGTILLHKILGAFAKEGGSIDEIEQLALSLSPEIYTLGVALAPVHFPHQKTSFVLAEDEVSFGIGIHGEPGYRVEKFEGSERIAIELVNKLKAEINWQKKANKNYILLVNGLGSTTLMELYSFQYDVMRLLELEGLSVKFCKVGNLMTSCDMSGISLTLCSVKDPKWLDYLNVPTGAFAWLEHHHHHH", "soluble on expression in E. coli": "soluble"},
      {"sequence": "MEGEAELWNFLERHLRSIYEGDWATYEATTHEELSLYEWFVTPHRLDGLPFHRFMVEKNWATRGRAYRLDLLEKRLQRYGDVAIFSYTLLLTVEEEAGLRHRAVNESRVAVRFPEGWKVVHVHKSPAG", "soluble on expression in E. coli": "soluble"},
      {"sequence": "MEGIDMLDIKLIRENPELVKNDLIKRGELEKVKWVDEILKLDTEWRTKLKEINRLRHERNKIAVEIGKRRKKGEPVDELLAKSREIVKRIGELENEVEELKKKIDYYLWRLPNITHPSVPVGKDENDNVPIRFWGKARVWKGHLERFLEQSQGKMEYEILEWKPKLHVDLLEILGGADFARAAKVSGSRFYYLLNEIVILDLALIRFALDRLIEKGFTPVIPPYMVRRFVEEGSTSFEDFEDVIYKVEDEDLYLIPTAEHPLAGMHANEILDGKDLPLLYVGVSPCFRKEAGTAGKDTKGIFRVHQFHKVEQFVYSRPEESWEWHEKIIRNAEELFQELEIPYRVVNICTGDLGYVAAKKYDIEAWMPGQGKFREVVSASNCTDWQARRLNIRFRDRTDEKPRYVHTLNSTAIATSRAIVAILENHQEEDGTVRIPKVLWKYTGFKEIVPVEKKERCCAT", "soluble on expression in E. coli": "soluble"},
      {"sequence": "MEGQRWLPLEANPEVTNQFLKQLGLHPNWQFVDVYGMDPELLSMVPRPVCAVLLLFPITEKYEVFRTEEEEKIKSQGQDVTSSVYFMKQTISNACGTIGLIHAIANNKDKMHFESGSTLKKFLEESVSMSPEERARYLENYDAIRVTHETSAHEGQTEAPSIDEKVDLHFIALVHVDGHLYELDGRKPFPINHGETSDETLLEDAIEVCKKFMERDPDELRFNAIALSAA", "soluble on expression in E. coli": "soluble"},
      {"sequence": "MEGSQQTITSKQLVRMLKDASRGSKGKGSGEMKFCFLIGAGASISSGIPSGAKLAWDWLQQIKEDCDGEDFEDWKIEIKMPDQHIEERVGEFYPEIYEKRFGHAPETGYDYIRGLMEGREPSLGYLILANIMVREKHNVVITTNFDNLLEDAIRTYTKEKPFIAGHEALADYVPKRSDRPIILKLHRDLFLQPFSDQLNTDILQAAWESILGKFLSDYHLIVLGYGGNDGSLMNYLLKLKNRKPIYWCVRNTDKATSKSLWNTLSPKAKRLLKNDGYLVPIDDFDRFMYDCYAALGYKFLEGIEKIEKPKSIHEILKPNYARIESIQTQLRQLSQTEEELSKESFQSIKSFLPDSWMWILKANQEKDIDKKDKIYREGIAKYPQDANLLGDYADFLCDICHD", "soluble on expression in E. coli": "not soluble"},
      {"sequence": "MEHIRRVAELAREIARNNGLDPERAYLAGLLHDAARDLPEEELRRLAPPENEVEEAHPLALHGRAARALAASWGVRDEEVLEAIEGHVYGVDPENGIGMALYVADVSEPGRGVNEEIRELALAGRLKEAYRLAVRNKVHYLKAKKIPIHPRTLEVYHSL", "soluble on expression in E. coli": "soluble"},
      {"sequence": "MEHTIAVIPGSFDPITYGHLDIIERSTDRFDEIHVCVLKNSKKEGTFSLEERMDLIEQSVKHLPNVKVHQFSGLLVDYCEQVGAKTIIRGLRAVSDFEYELRLTSMNKKLNNEIETLYMMSSTNYSFISSSIVKEVAAYRADISEFVPPYVEKALKKKFK", "soluble on expression in E. coli": "not soluble"},
      {"sequence": "MEIEVVYQHSDFIIINKSEGISVHKDQEEQGLTELVAKQLNVPKVWLVHRLDKVTSGLLILALNAESAAEFSRLFSEHKIHKTYLALSNQKPKKKQGLIIGDMKKAREGAWKLCQTKDNPAITRFESVSCEPNLRLFILKPQTGKTHQLRVAMKSLGSPILGDGLYGKNTEKIDRTYLHATQLEFDYLNNFISVTCLPSQGQFWIKPTVFEQIQVYLTKPFLSKLEHHHHHH", "soluble on expression in E. coli": "soluble"},
      {"sequence": "MEIGQRVRINFEVATVRYIGEVDGYGSQRWVGLEWDDPTRGKHDGIVRGKRYFQTRHPNGGSLMKHEIVPKPTDLLFEIKDRYIEEESVETEIELAQSNKKIELIGMDQTAAKQSNIEKLINIVLDNRSVGFPPSSDSPQFILCRELNLYGNLLYKWKTVRQILEYFPRIQELNLRRNRMQCFNEEEDDDESEGDDHVYSDSCKKLVISECNLSENSIDSILLRFPSTSDVVAFGNDLTRFSVSEAVSSRLTSLDLEDNPFKTLDSIHGTFPNLTQLSVANCGITSLNGFDGSIKFPKLEYLNIKRNSIVEWKSVNSIRSLKSLKRLLFDCKKLSTEKGVHAYEIVIAKLSTLIDLNRFDVSEVERRSAEIRFLNKYAGLNDNEDHQDDIKRLIEIHGEPTLDTAKKGLAVVKIRIECGNRVETRRLPLGMSIQKIRDMLARLFKVPNTSKIRLYLVMSEKAKQHRIELENPLREFGHYSPSEDRDILVVEHD", "soluble on expression in E. coli": "not soluble"},
      {"sequence": "MEIKEITIIGGYDKNGNPEPVREVTIKRGEIVGVVGPTGSGKSNLISDIEQLAQGDTISKRRILVNGEVPPIEMRRDPKKRRIAQLSQNMNFLADMTVEEFILMHAKSRGVYRENIVDEVIELANRLTGEPIKKDYNLTILSGGQSRSLMVADVAVISDSPIVLIDEIENAGIKKHEALELLAGYGKIVLVITHDPVLALMTDRRIVMRNGGMQKIIETTEEEKEISRKINEVDNWLLSLREKIRFGERLTHEDISLMVKG", "soluble on expression in E. coli": "soluble"},
      {"sequence": "MEIKLEEILKKQPLYSGKAKSIYEIDDDKVLIEFRDDITAGNGAKHDVKQGKGYLNALISSKLFEALEENGVKTHYIKYIEPRYMIAKKVEIIPIEVIVRNIAAGSLCRRYPFEEGKELPFPIVQFDYKNDEYGDPMLNEDIAVALGLATREELNKIKEIALKVNEVLKKLFDEKGIILVDFKIEIGKDREGNLLVADEISPDTMRLWDKETRDVLDKDVFRKDLGDVIAKYRIVAERLGLL", "soluble on expression in E. coli": "soluble"},
      {"sequence": "MEIKMAKDYGFCFGVKRAIQIAEKNQNSLIFGSLIHNAKEINRLEKNFNVKIEEDPKKIPKNKSVIIRTHGIPKQDLEYLKNKGVKITDATCPYVIKPQQIVESMSKEGYQIVLFGDINHPEVKGVISYATNQALVVNSLEELQEKKLQRKVALVSQTTKQTPKLLQIASYLVERCTEVRIFNTICNATSYNQKAALDLSKEVDIMIVVGGKTSSNTKQLLSIAKQHCKDSYLVEDENELELAWFKDKKLCGITAGASTPDWIIENVKQKISTILEHHHHHH", "soluble on expression in E. coli": "not soluble"},
      {"sequence": "MEILQFIGYGNMAQAILEGAHEILSKRFILEITGRNPEKIAPFLQEKNIQAQIVPYKDAIDIHQKFVFLLFKPYNLKDFNYQGQAKSVLSALAGVGFKALSDAIDSLHYLKCMPNIASKFALSSTAVCEKSPMPLISQKALSVIESFGNCVRVGHEELVDASVATNGSALAFLSLVANSLKDAGIREGLNARGSLELVKMSFKGFAKLLEKERPEMIIEQICTPKGATIEGLSVLEKKGVRGAFIEACHKSVKKMRLLEHHHHHH", "soluble on expression in E. coli": "not soluble"},
      {"sequence": "MEILSDMWKEKITFIGINIDDEKSWKKFSQKNIKWITLNDPKEAFGLYIRYKANGIPFYVLVTPDGRISDIWYGYNKDSLSERLKQGVK", "soluble on expression in E. coli": "not soluble"},
      {"sequence": "MEITDVRIRKIDSEGKMKAVVSVTFDNEFVVHDIKVIESQNGLFIAMPSRKAPDGEFRDIAHPINAETRSKIQTAILDKYESICAGSTETEGNN", "soluble on expression in E. coli": "soluble"},
      {"sequence": "MEIVCEDFQKALTKIKLLRENANIIEETVQRSVREIVQNVRESRDEALSFYTKKFDGVEIKDVRVSEEEIKQASMFVESSFLEALQEAKKNIISYHEKQKRQSMFDCTSKGIIRGQIIRPLENIGVYVPGGTASYPSSVLMNVLPAKLAGVKKIVMVTPPRAGGIDPHILVAASLAGVDEIYMIGGAQAIAALAYGTESIPKVDKIVGPGNLYVALAKREVYGIVNIDMIAGPSEIVVIADETGNAKYIAADLLSQAEHDERATAICITTNIELAKEVEKEIERQLETLPRSEIARESINRNGAIFIVPSIDEALQLSNEIAPEHLELHIKEPMNALAYVKHAGSIFLGPYAPEPLGDYLAGPNHVLPTSGTARFFSPLSVDDFVKKSSFLSYTEGALRDVKHHIVELANKEGLHAHARAIQIRFGEEE", "soluble on expression in E. coli": "not soluble"},
      {"sequence": "MEIVDTRTPNSKRFISGVTGDWEVIIGMEVHAQIISNSKLFSGASTKFGAEPNNHVSLIDAAMPGMLPVLNQECVRQAVRTGLGLKARINLRSVFDRKNYFYPDLPQGYQISQFRYPIVGEGKIIISIGPDSNGQFEDIEVGIERLHLEQDAGKSMHDQHPTMSFVDLNRSGVALMEIVSKPDMRSADEAKAYMTKLRTIVRYLGTCDGNMDEGSMRADVNVSVRRPGESFGTRCEIKNVNSIRFIGQAIEYEARRQIAILEDGGVIDQETRLFDAAKGETRSMRSKEEAHDYRYFPDPDLLPLEFDQAFVDALAAELPELPDDIKIRFINEMGLTAYDASILVTEKAIANYFEKVAHGRDGKTVANWVINDLLGALNKDNREIEETPVSPDQLGSIIDLIKEGTISGKIAKDLFEIIWHEGGDPRQIVEERNMKQVTDTKAIERAVDEIMANNSDKVAQAKQKPALAGWFVGQVMKTTGGKANPQTVNELVKLKLGID", "soluble on expression in E. coli": "not soluble"},
      {"sequence": "MEKATKRNDEECEVQLNIKRNSKHSAWTGELFKIECPVKYCVHRPNVTWCKHNGTIWVPLEVGPQLYTSWEENRSVPVFVLHFKPIHLSDNGSYSCSTNFNSQVINSHSVTIHVRERSQNSS", "soluble on expression in E. coli": "soluble"},
      {"sequence": "MEKAYKILSVQENISHKKAKALIDSGLVSIGGKKLMVARKELPKNTHFSVQKVEKPSVIFEDENILALFKPPFIESYDLASFFKGWALLHRLDKETSGVVLLVKENSEFHLKAKKAFKDRAVKKEYLALTQGIIEEEREINAPILTFKTTKAFSKISKKGQEAVTIITPLKIINKKTLLKVGIKTGRTHQIRVHLKHINHPIIGDTLYNNEPSLAKRLMLHAHKIALLGYEFEAIAPKEFEILEHHHHHH", "soluble on expression in E. coli": "soluble"},
      {"sequence": "MEKDDATASFSPSFSTYSGDRLVEIAERVCYKEKSDAEFEFSTAATSSSGDGGLVFPVFNKNLISGDVSPEKVIPLKDLFLRERNDQQPPQQTYSSSSDEEEEDDEFDSIPSEIYCPWTPARSTADMSPSGGCRKSKSTGSSSTSTWSTKRWRLRDFLKRSKSDGKQSLKFLNPTNRDDDDESSKSKKKVSVSVTVSAHEKFYLRNKAIKEEDKRKSYLPYKQDLVGLFSNIHRYGKTFPPF", "soluble on expression in E. coli": "not soluble"},
      {"sequence": "MEKGAPQNNADEEAKVEVPPPAPKTTSAERAPEKVSAEKAQEQEKSAMGSVPIPPEREKHIKERKTGYEYSIVTINYKPGTKFGLGIKNVFNKSIYVIKVEENSLVSGIFNVADRIIDVDGEPVYDNAKCKGLLVKALKEKKVCTLLIERGITESALKDATNEMNEEHTQSVMAPPDVKSIMRKLEAHNFLRKSPSCESAAAPNPVPSAMTKNKEGKGERKACILEDGHKSVMIRMDNEENRNKLKKVEPKEPPRRLDPKTPPKPAAPEPKPEGK", "soluble on expression in E. coli": "not soluble"},
      {"sequence": "MEKHLLISKGCKGWGGPLTITPGQGKKIAYITGGIRPPVVDRLSELTGWPSIDVFKNGEPPAEEIGLMVIDCGGTLRCGLYPKRGIPTINLHPTGKSGPLAEFIHEGIYVSGVTPACIEMVWPQGEGGKLGIVADDLTGATTVGVLLARSGLKTAAFFDTESFARNEVEYPAMVVSSDSRPLPKAEAQHKVSAAVKQLQARGAHYFTKRIDTTLRGGIGFEIDAMLEQLPQETVAVVVPAMPQSRRILVGGYSVIDSVALSRTDVARDVRTPVTESWVPGLLAAQTHHQVGHIALTSVMKGEGQIQQDLQEQQQRGVRVIVVDAITVDDVDAIAGAVVALNWNVLTVDPGPFTERLAVRRGLMREARSSAPASLTADGQRGSILIVAGSATPVTKKQLQYLIANDARVCHIPVDAELLVDRKNAAEIEVNRVVQHARQCVPAQHNALFVFESALTGRLLNLQEEEQRFGLAHGEAAQNINHGLGSIVREVLNCASGEIKGLYMTGGDTMVNVLKELGATGIEMIDYVIPQTDMVRIIGGDYAGLICVGKGGLTGPEDIISIIVDRIYQEAQ", "soluble on expression in E. coli": "not soluble"}
    ]}
  ]
}
